Source: paper PMC12808100, “The non-catalytic DNA polymerase ε subunit is an NPF motif recognition protein” (Nature Communications, 2025)

Molecular target: His6-avi-MBP-tagged POLE2
Assay: Single-point nHU-MS with recombinant His6-avi-MBP-POLE2 bait, Jurkat extract
Format: binding, human
Details: for pKapp_sign: significant apparent affinity of endogenous prey protein for POLE2 bait, single-point nHU-MS, Figure S11
Source text: So far, our study only focused on a few hand-picked NPF motifs and studied them as short synthetic peptides. However, many other proteins may be present in the proteome that could bind to POLE2 and their putative NPF motifs are embedded in their natural structures that can greatly affect their binding properties. To investigate interactions between POLE2 and intact, full length proteins proteome-wide, we used nHU-MS experiments with recombinant His6-avi-MBP-tagged POLE2 as bait and purified His6-avi-MBP as a control. Even though we are aware that this recombinant POLE2 may bind to NPF motifs with a somewhat altered affinity, we assumed that this would affect all NPF motif-mediated interactions equally, allowing an unbiased affinity ranking of all identified partners. Single point nHU measurements were performed at 26 μM POLE2 concentration and the recovered supernatant was measured by label free proteomic MS measurements (Fig. 3A, Supplementary Figs. 8A, 9, Supplementary Data 1).
Single-point nHU experiments with protein baits were carried out nearly identically with two key modifications. First, the resin saturation step was carried out by mixing 50 μl streptavidin resin with 0.5−1 ml 50 μM biotinylated protein solution and the mixture was incubated for 1.5 h at 4 °C with constant agitation. Second, instead of using estimated bait concentrations, we measured it experimentally. An extra aliquot of resin stock was prepared alongside the nHU samples that were identically processed that were used to eluate the immobilized proteins under harsh conditions, in order to experimentally quantify the Cbait by using densitometry of Coomassie stained SDS-PAGE that included a protein calibration series. For this, 50 μl bait-saturated resin aliquots were mixed with 200 μl 4x Laemmli Sample Buffer (120 mM Tris-HCl pH 7, 8% SDS, 100 mM DTT, 32% glycerol, 0.004% bromphenol blue, 1% β-mercaptoethanol), instead of cell extract. After 15 min incubation at 95 °C, these samples were analyzed by SDS-PAGE using protein calibration standard, made from recombinant MBP. Densitometry was carried out after Coomassie staining on raw Tif images by using Fiji ImageJ 1.53c and experimental bait concentration were determined by adjusting for molecular weight differences between MBP and MBP-POLE2 constructs.
Samples were digested overnight at 37 °C.

| Molecule | pKapp_sign | Kd (from the depletion of one peptide, single quantification, read-out: dissociation constant) | depletion (one DONSON peptide, single quantification) |
| --- | --- | --- | --- |
| FBXO3 (protein, UniProt Q9UK99 1-471, looked up) F-box only protein 3: MAAMETETAPLTLESLPTDPLLLILSFLDYRDLINCCYVSRRLSQLSSHDPLWRRHCKKYWLISEEEKTQKNQCWKSLFIDTYSDVGRYIDHYAAIKKAWDDLKKYLEPRCPRMVLSLKEGAREEDLDAVEAQIGCKLPDDYRCSYRIHNGQKLVVPGLLGSMALSNHYRSEDLLDVDTAAGGFQQRQGLKYCLPLTFCIHTGLSQYIAVEAAEGRNKNEVFYQCPDQMARNPAAIDMFIIGATFTDWFTSYVKNVVSGGFPIIRDQIFRYVHDPECVATTGDITVSVSTSFLPELSSVHPPHYFFTYRIRIEMSKDALPEKACQLDSRYWRITNAKGDVEEVQGPGVVGEFPIISPGRVYEYTSCTTFSTTSGYMEGYYTFHFLYFKDKIFNVAIPRFHMACPTFRVSIARLEMGPDEYEEMEEEEEEEEEEDEDDDSADMDESDEDDEEERRRRVFDVPIRRRRCSRLF | 4.421 | – | – |
| LMO4 (protein, UniProt P61968 1-165, looked up) LIM domain transcription …: MVNPGSSSQPPPVTAGSLSWKRCAGCGGKIADRFLLYAMDSYWHSRCLKCSCCQAQLGDIGTSCYTKSGMILCRNDYIRLFGNSGACSACGQSIPASELVMRAQGNVYHLKCFTCSTCRNRLVPGDRFHYINGSLFCEHDRPTALINGHLNSLQSNPLLPDQKVC | 4.815 | – | – |
| PNMA2 (protein, UniProt Q9UL42 2-364, looked up) Paraneoplastic antigen Ma2: ALALLEDWCRIMSVDEQKSLMVTGIPADFEEAEIQEVLQETLKSLGRYRLLGKIFRKQENANAVLLELLEDTDVSAIPSEVQGKGGVWKVIFKTPNQDTEFLERLNLFLEKEGQTVSGMFRALGQEGVSPATVPCISPELLAHLLGQAMAHAPQPLLPMRYRKLRVFSGSAVPAPEEESFEVWLEQATEIVKEWPVTEAEKKRWLAESLRGPALDLMHIVQADNPSISVEECLEAFKQVFGSLESRRTAQVRYLKTYQEEGEKVSAYVLRLETLLRRAVEKRAIPRRIADQVRLEQVMAGATLNQMLWCRLRELKDQGPPPSFLELMKVIREEEEEEASFENESIEEPEERDGYGRWNHEGDD | 5.251 | – | – |
| endogenous DONSON: endogenous DONSON protein in Jurkat extract (protein) MALSVPGYSPGFRKPPEVVRLRRKRARSRGAAASPPRELTEPAARRAALVAGLPLRPFPAAGGRGGGSGGGPAAARRNPFARLDNRPRVAAEPPDGPAREQPEAPVPFLDSNQENDLLWEEKFPERTTVTELPQTSHVSFSEPDIPSSKSTELPVDWSIKTRLLFTSSQPFTWADHLKAQEEAQGLVQHCRATEVTLPKSIQDPKLSSELRCTFQQSLIYWLHPALSWLPLFPRIGADRKMAGKTSPWSNDATLQHVLMSDWSVSFTSLYNLLKTKLCPYFYVCTYQFTVLFRAAGLAGSDLITALISPTTRGLREAMRNEGIEFSLPLIKESGHKKETASGTSLGYGEEQAISDEDEEESFSWLEEMGVQDKIKKPDILSIKLRKEKHEVQMDHRPESVVLVKGINTFTLLNFLINSKSLVATSGPQAGLPPTLLSPVAFRGATMQMLKARSVNVKTQALSGYRDQFSLEITGPIMPHSLHSLTMLLKSSQSGSFSAVLYPHEPTAVFNICLQMDKVLDMEVVHKELTNCGLHPNTLEQLSQIPLLGKSSLRNVVLRDYIYNWRS | – | 92 µM | approximately 22% |
| GLB1 (protein, UniProt P16278 29-677, looked up) Beta-galactosidase: QRMFEIDYSRDSFLKDGQPFRYISGSIHYSRVPRFYWKDRLLKMKMAGLNAIQTYVPWNFHEPWPGQYQFSEDHDVEYFLRLAHELGLLVILRPGPYICAEWEMGGLPAWLLEKESILLRSSDPDYLAAVDKWLGVLLPKMKPLLYQNGGPVITVQVENEYGSYFACDFDYLRFLQKRFRHHLGDDVVLFTTDGAHKTFLKCGALQGLYTTVDFGTGSNITDAFLSQRKCEPKGPLINSEFYTGWLDHWGQPHSTIKTEAVASSLYDILARGASVNLYMFIGGTNFAYWNGANSPYAAQPTSYDYDAPLSEAGDLTEKYFALRNIIQKFEKVPEGPIPPSTPKFAYGKVTLEKLKTVGAALDILCPSGPIKSLYPLTFIQVKQHYGFVLYRTTLPQDCSNPAPLSSPLNGVHDRAYVAVDGIPQGVLERNNVITLNITGKAGATLDLLVENMGRVNYGAYINDFKGLVSNLTLSSNILTDWTIFPLDTEDAVRSHLGGWGHRDSGHHDEAWAHNSSNYTLPAFYMGNFSIPSGIPDLPQDTFIQFPGWTKGQVWINGFNLGRYWPARGPQLTLFVPQHILMTSAPNTITVLELEWAPCSSDDPELCAVTFVDRPVIGSSVTYDHPSKPVEKRLMPPPPQKNKDSWLDHV | 4.2 | – | – |
